This data set in a line: label from the status in PepcDB records.
With “MNAIREGVRALCAEFDAAYWRRIDEQRGFPEAFVKALTDAGWLSAMIPEEYGGSGLGLAEASVILEEVNRCGGNSGTVHGQMYNMFTLLRNGSEAQKRFYLPKLASGELRLQSMGVTEPTTGTDTTKIKTTAVRKGDRYVINGQKVWISRIQHSDLMILLARTTPLAEVKRKSEGMSIFLVDLREAIGKGLTVQPIANMVNHETNELFFDNLEIPADSLIGEEGKGFRYILDGLNAERTLIAAECIGDGRWFIDKASHYARDRVVFGRPIGQNQGVQFPIAEAHIEVEAADLMRWRACQEYDAGLNAGASANMAKYLAAKASWEAANACLQTHGGFGFACEYDVERKFRETRLYQVAPISTNLILSYVAEHLLELPRSF”, the protein production result is reported as “failed”.

For “TIAFIVNKNLLHGSEIPKSWADLKTGKYKVSIGDVSTAAQAANGVLAASFAMKGDESNIEPGLALFTDLAKQKRLSLANPTIQTIEKGEIEVGVVWDFNGLSYRTKMAKPDDYVVLIPSDGSVISGYTTIINKYAKHPNAAKLAREYTFSDAGQ”, the protein production entry is “failed”.

On to “MWEPACKNRTRTLAGLAPLLASIQSPSPPSVVLRLDPSTRTQALCPHPATARGNPMSRIFITGSTDGLGLAAARTLISQGHDVVLHARSRQRAAAIADTSAAALSLVIGDLASAAETRSIADQVNAFGRMDAVIHNAGIYLERSRGETPEGHAKTLAVNVLAPYLLTAWITRPDRLIYLSSGMHRSGASTLDDIDWKRRPWNASQAYSESKLYIATLAALARHWPDALSNAVDPGWVPTKMGGAGAPDDLEMGHLTQTWLATSDEGAAKVSGGYWYHRQRREAAAEVGDVGFQEALVGRLAELTGVRLFAERG”, for which the protein production result is “failed”.

For “MKKGFVSIIIPSYNEASNIKLIYESLRNEFQSIDYDYEIYYINDGSTDRTLEEIKKLAEKSEHVKYISFSRNFGKEAAILAGFQHARGDAVVVMDADLQHPTYLLHDFIKGYEEGYDQVVAQRNRKGDNPVRSYLSSLYYRFINNAVEVDLRDGVGDFRLLSRKAVNAMLKLSEGNRFSKGLFCWIGFDQKIVYYENVERKNGKSKWSFRHLLNYGIDGIVSFNNRPLRMCFYAGIFILFLSLIYIAATFIRILKYGVIVPGYFTIISAVLFLGGVQLLSLGIIGEYIGRIYYETKKRPHYLIQEANIAHGETHENRES”, the protein production entry was “failed”.

On to “MQAETNSAPLAAALYMIAAMSIIGVIDNYVIRLAESIGLWQFHFMRSLMMLPLVGLMSLMGLGGLFPRRKGWVLLRSLLLTVAMLFYFSALAFMPIAQALAGLFTSPIFVLLVTAFGLRQRIGPWRILAVLMGFAGILFVLQPDPGAFDATVLIPVAGGFFYALGAVVTRRHCAGESTAALLGAMVTALGLTGLGGLIWLALFPATPLPGPDGFVARGWVWPMAEAMPWVALQAVGSATAVFMLIRAYQLGEPSYVSVFEFSVMIFGPLFAWVVLGVGLGPWQMLGIGLIVLAGAIIALRSG”, for which the protein production entry is “failed”.

As for “MLLILAILPIVVTVGLGVFAGLRHQFAPTTSDILIQLVMHYALPLSLFGGILSLKRATIIQNSSVALWLALGMLGGMVIVIVSQCCFHQQLETGTLRALVIASPSIPFMGVSVLLVVFGKISVLLVALGGLYMNLVQVPVSVLLLTLAGGSTPEQRWRAGWQKLCRASRQPVVWAPISAFLLNLAGLRLPSAWLTNFTELGQAAGGVALFALGLLLTTRPWRLTRMVVLNVLLKNLGLPVLIWGIMASLGVSLSNQQLVVLTLAIPTATIATMLAVQNHLAPDEYVATQMLSTVIAPLTMGFLMWGLQLV”, the protein production entry is reported as “failed”.

Consider “MTETNESSGVNLKKDVKFSIIIPAHNEEKYIRKCLDSIAKASEAYKEQTEVIVVLNRCTDKTEEIAKSYNCVTLKNNDKNLSKIRNAGAKIANGEIIVTIDADTIMTESMLSNVDKYLASGKYIGGGVNGKFERISLGIFLSAMLIIIPLLFKYGAISVGIFWCYRKDFMAINGFNENMLMAEDADFAKRLKEWGKKNNKKFGTIKNGMITSCRRFDTYGDWTLLKNPKVILAYLKGNDRKYADKTYYDNQER”, for which the protein production result was “failed”.

“MKPLKEVVGAYLALSDAQRQLVAGEYDEAAANCRRAMEISHTMPPEEAFDHAGFDAFCHAGLAEALAGLRSFDEALHSADKALHYFNRRGELNQDEGKLWISAVYSRALALDGLGRGAEAMPEFKKVVEMIEERKGETPGKERMMEVAIDRIAQLGAS”: the protein production result is listed as “not failed”.

With “DDSSDPKTSKSATSSEASSAAEAAPAELPTAEELNAILAVATDPAAPVEQKVATVQGGETAPELFETMTASKQESGANFQ”, the protein production result is reported as “failed”.

On to “MSQPVAFVTGCSSGIGRALADAFQRAGYRVWASARKEDDVRALAEAGFQAVQLDVNDAAALARLAEELGVEAAGLDVLVNNAGYGAMGPLLDGGVEAMRRQFETNVFAVVGVTRALFPLLRRKSGLVVNVGSVSGVLVTPFAGAYCASKAAVHALSDALRLELAPFGVEVLEVQPGAIASNFGASASREMDSVVDERSPWWPLRRQIQARAAASQDNPTSAEDFARQLLAAVQRRPRPPLVRIGNGSRALPALARWLPRGLLERLLKKRFGLDTRL”, for which the protein production entry is on record as “failed”.

Take “MESVRIEQMLSLPAEVSSDNLESAERGASAAQVDMGPHPKVAAEGPAPLPTREPEQEQSPGTSTPESKVLLTQADALASRGRIREALEVYRQLSERQQLVAEQLEQLVRCLAEKVPQGEALAPAPPDEGSTASGTVAAEETGAAAAAAATEVWDGFKCRKCHGFLSDPVSLSCGHTFCKLCLERGRAADRRCALCGVKLSALMVATGRARGARRAGQQPPPPLRVNVVLSGLLGKLFPGPARASQLRHEGNRLYRERQVEAALLKYNEAVKLAPNDHLLYSNRSQIYFTLESHENALHDAEIACKLRPMGFKDNLELPHCSSQEEAAARGDGSSLMDPAKVKGDGQQHHMKDQEEEEEKWDATSPKAASSKTGKCQEKKRKHCQIESQEETGMPNKASKQDPPTDQGDKPALSLPLASFDASDLECALCMRLFYEPVTTPCGHTFCLKCLERCLDHNAKCPLCKDGLSQCLASRKYSKNVIMEELIAKFLPEELKERRKLYEEEMEELSNLNKNVPIFVCTMAYPTVPCPLHIFEPCYRLMIRRCIETGTRQFGMCLGDPVKGFAEYGCILEIRNVQFFADGRSVVDSIGKRRFRVLHQSQRDGYNTADIEYIEDQKVQGEDCAELMGLHNCVYQQASLWFHSLKLSLKNRILNHFGPMPEKDADPQMNPNGPAWCWWMLAVLPLESRAQLPFLAMRSLKDRLNGIRRVLAFISRNQN”: the protein production result is listed as “failed”.

Regarding “MGYNTIPAGKDLPNDIYVAIEIPANASPIKYEIDKDMDALLVDRFMATPMFYPANYGYINNTLADDGDALDVLVITPYPVAPGSVIRARPVGVLKMSDEAGGDEKLLAVPHEKLTQLYNDIHDIDDVPQLLKDQIVHFFEHYKDLEKGKWVKVEGWENADAARAAIVKSAAAYKG”, the protein production entry is “not failed”.

Regarding “MIKVNVMYPYTEGARFDHAYYCDRHMPMVKARLGSACAYYTVEKGLAGSASGAPPAFVAMCAFICDSAENFYAAMYYHGAEILGDIANYTDIAPVLQISEVVVERSDR”, the protein production result is listed as “not failed”.

As for “MAEASSLVGKLETEVEIKASAKKFHHMFTERPHHVSKATPDKIHGYGKLTVGKNKIEAVDPEKNLITFKVLEGDLMNEYKSFAFTLQVTPKQGESGSIAHWHLEYEKISEEVAHPETLLQFCVEISKEIDEHLLAEE”, the protein production entry is “failed”.

“IRQARDLLVASMRNPPSLELLAQKTGLNVRKLNLGFRRMYRATAYGFLQEYRLEQAYKLISSGEMSVSQAAYHVGYGAAHFATVFRKRFGVSPSRLR”: the protein production entry is reported as “failed”.

As for “MATKHEQILTYIDSLPVGEKISVRRIAKEMKVSEGTAYRAIKEAENKGFVSTIERVGTIRIEQKKKENIEKLTYAEVVNVIDGQVLGGRAGLHKTLNKFVIGAMELDAMMRYTAAGNLLIVGNRINAHRQALEAGAAVLVTGGFNTDDSIVQLADELELPILSTSYDTFTVAAMINRAIYDQLIKKEIVLVEDILTPADRTVYLSPKDKLEKWYEKNFETGHGRFPVVDDQMKIHGILTSKDIAGHDRNASIEKVMTKNPVTVIGKTSVASAAQMMVWEGIEVLPVTDGHQKLIGMISRQDVLKALQMIQKQPQVGEKLDDIVSRGFKDEGDDKEDQTVYEYEVTPQMTNQLGTISYGVFTTILTQAANRFLRSKKRGELVIESITIFFLKPVQMESVIEVKPRILEAGRKFGKMEVEVHSQGHIVSKAMLMVQLMERS”, the protein production entry is recorded as “failed”.

(Values after a protein production outcome set (Wang et al. 2014).)
